Source: PMC8761494, “Structural basis of Nrd1–Nab3 heterodimerization” (Life Science Alliance, 2022)
Several values for one entry are separate records, joined by “and”; a condition that tells them apart may be missing. Equal entries are not always repeated. Where two headings read alike, the source gives them in different places.

Experiments:
Nrd1_(1-222) [1] = target: T1, Nrd1_(1-222) (S. cerevisiae, UniProt P53617 1-222); test: ITC
T1 chain: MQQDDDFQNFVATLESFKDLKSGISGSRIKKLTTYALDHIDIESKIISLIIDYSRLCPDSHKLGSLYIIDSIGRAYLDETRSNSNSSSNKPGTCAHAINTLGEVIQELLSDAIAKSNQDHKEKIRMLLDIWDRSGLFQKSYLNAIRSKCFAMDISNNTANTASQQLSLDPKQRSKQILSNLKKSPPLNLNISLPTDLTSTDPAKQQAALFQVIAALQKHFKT

Nrd1_(147-222/290-489) [2] = target: T2, Nrd1_(147-222/290-489) (S. cerevisiae, UniProt P53617 147-489, lacking residues 223–289); test: ITC
T2 sequence: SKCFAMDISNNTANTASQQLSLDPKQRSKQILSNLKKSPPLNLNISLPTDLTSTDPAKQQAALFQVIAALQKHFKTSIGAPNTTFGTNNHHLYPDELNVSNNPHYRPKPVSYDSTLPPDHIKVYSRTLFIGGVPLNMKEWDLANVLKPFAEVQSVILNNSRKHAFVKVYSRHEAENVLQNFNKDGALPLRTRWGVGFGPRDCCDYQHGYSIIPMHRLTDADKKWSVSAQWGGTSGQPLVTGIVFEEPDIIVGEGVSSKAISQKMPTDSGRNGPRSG

Nrd1_(1-222) [3] = target: T1, Nrd1_(1-222); test: ITC
[4] = target: T3, txA-HTEV-Nrd1_(147-222) NAID (S. cerevisiae, UniProt P53617 147-222); test: ITC
T3 chain: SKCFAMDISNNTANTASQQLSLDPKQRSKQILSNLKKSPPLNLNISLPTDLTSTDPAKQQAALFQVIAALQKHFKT

Nrd1_(147-222/290-489) [5] = target: T2, Nrd1_(147-222/290-489); test: ITC; remark: listed apart in the source
Nrd1_(1-222) [6] = target: T1, Nrd1_(1-222); test: ITC
[7] = target: T3, txA-HTEV-Nrd1_(147-222) NAID; test: ITC
Nrd1_(147-222/290-489) [8] = target: T2, Nrd1_(147-222/290-489); test: ITC; remark: listed apart in the source
Nrd1_(1-222) [9] = target: T4, Nrd1_(1-222) (S. cerevisiae, UniProt P53617 1-222); test: ITC; Nab3_(191-261) (198 μM) in the syringe titrated into Nrd1 variants in the cell (19-54 μM); 15°C; 20 mM potassium phosphate pH 7.0, 150 mM NaCl, 1 mM β-mercaptoethanol; one-site binding model; duplicates; conditions: both partners purified
T4 construct: also called Nrd1 construct including the CID and NAID; source: E. coli BL21(DE3), purified (IMAC, TEV digestion, second IMAC, gel filtration); not shown: TxA (E. coli thioredoxin A), N-terminal, cleaved; His6, N-terminal, cleaved
T4 sequence (looked up): T1 chain

Nrd1_(147-222/290-489) [10] = target: T5, Nrd1_(147-222/290-489) (S. cerevisiae, UniProt P53617 147-489, lacking residues 223–289); test: as above; conditions: both partners purified
T5 construct: no linker is mentioned; source: E. coli BL21(DE3), purified (IMAC, TEV digestion, second IMAC, gel filtration); not shown: TxA (E. coli thioredoxin A), N-terminal, cleaved; His6, N-terminal, cleaved
T5 sequence (looked up): T2 sequence

[11] = target: T6, Nrd1 part (residues 158-222) of the Nrd1_(158-222)-Nab3_(202-261) chimera (S. cerevisiae, UniProt P53617 158-222); test: NMR structure; the two stretches joined on one chain (chimera Nrd1_(158-222)-Nab3_(202-261)); 10 mM sodium acetate pH 5.1, 25 mM NaCl, 1 mM DTT, 25°C, ~1 mM protein; conditions: both partners purified
T6 construct: also called Nrd1 segment of the Nrd1–Nab3 chimera; source: E. coli BL21(DE3), purified (IMAC, TEV digestion, second IMAC, gel filtration); not shown: TxA (E. coli thioredoxin A), N-terminal, cleaved; His6, N-terminal, cleaved
T6 sequence (looked up): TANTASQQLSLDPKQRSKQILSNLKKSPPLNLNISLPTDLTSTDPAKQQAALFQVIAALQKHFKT

B1: Nrd1 interaction domain of Nab3 (Nab3 191-261) (domain or fragment, S. cerevisiae, UniProt P38996 191-261, looked up)
chain: REENDNTHFPTNMENVNYDLLQKQVKYIMDSNMLNLPQFQHLPQEEKMSAILAMLNSNSDTALSVPPHDST
notes: 15N/13C-labelled or unlabelled for NMR; natural abundance for ITC; also called NRID; Nab3 NRID; source: E. coli BL21(DE3), purified (IMAC, TEV digestion, second IMAC, gel filtration); not shown: TxA (E. coli thioredoxin A), N-terminal, cleaved; His6, N-terminal, cleaved
Kd (Nrd1_(1-222) [1]): 130 nM
Kd (Nrd1_(147-222/290-489) [2]): 36 nM
Ka (Nrd1_(1-222) [3]): 7.22e+06 M⁻¹
Ka [4]: 4.06e+07 M⁻¹ and 4.34e+07 M⁻¹
Ka (Nrd1_(147-222/290-489) [5]): 4.97e+07 M⁻¹
Kd (Nrd1_(1-222) [6]): 140 nM
Kd [7]: 23 nM and 25 nM
Kd (Nrd1_(147-222/290-489) [8]): 20 nM
stoichiometry N (Nrd1_(1-222) [9]): 0.4
fold tighter binding than with Nrd1_(1-222) (Nrd1_(147-222/290-489) [10]): ~4 fold

B2: Nab3 part (residues 202-261) of the Nrd1_(158-222)-Nab3_(202-261) chimera (domain or fragment, S. cerevisiae, UniProt P38996 202-261, looked up)
chain: NMENVNYDLLQKQVKYIMDSNMLNLPQFQHLPQEEKMSAILAMLNSNSDTALSVPPHDST
notes: Nab3, S. cerevisiae, residues 202-261; also called Nab3 segment of the Nrd1–Nab3 chimera; source: E. coli BL21(DE3), purified (IMAC, TEV digestion, second IMAC, gel filtration)
binding result [11]: binds
